Columns and labels:
[1] = target: 16 unique Boskar4 variants displayed on E. coli; assay: flow cytometry on cells
[2] = target: bv2 displayed on E. coli (Intimin fusion); assay: flow cytometry on cells

B1: biotinylated recombinant human G-CSFR (BioGCSFR) (receptor)
chain: ECGHISVSAPIVHLGDPITASCIIKQNCSHLDPEPQILWRLGAELQPGGRQQRLSDGTQESIITLPHLNHTQAFLSCCLNWGNSLQILDQVELRAGYPPAIPHNLSCLMNLTTSSLICQWEPGPETHLPTSFTLKSFKSRGNCQTQGDSILDCVPKDGQSHCCIPRKHLLLYQNMGIWVQAENALGTSMSPQLCLDPMDVVKLEPPMLRTMDPSPEAAPPQAGCLQLCWEPWQPGLHINQKCELRHKPQRGEASWALVGPLPLEALQYELCGLLPATAYTLQIRCIRWPLPGHWSDWSPSLELRTTERAPTVRLDTWWRQRQLDPRTVQLFWKPVPLEEDSGRIQGYVVSWRPSGQAGAILPLCNTTELSCTFHLPSEAQEVALVAYNSAGTSRPTPVVFSESRGPALTRLHAMARDPHSLWVGWEPPNPWPQGYVIEWGLGPPSASNSNKTWRMEQNGRATGFLLKENIRPFQLYEIIVTPLYQDTMGPSQHVYAYSQEMAPSHAPELHLKHIGKTWAQLEWVPEPPELGKSPLTHYTIFWTNAQNQSFSAILNASSRGFVLHGLEPASLYHIHLMAASQAGATNSTVLTLMTLTPEGSELH
modifications: biotin (Biotin-NHS, 1:20 molar ratio G-CSFR:Biotin-NHS)
fold increase of expression-normalized binding over Boskar4 [1]: 3 fold
fold increase of expression-normalized binding over Boskar4 [2]: 37 fold
